Target: biotinylated RBD of TcsL (Paeniclostridium sordellii) (UniProt Q46342)
Experiment: SPR

Chain of biotinylated RBD of TcsL (Paeniclostridium sordellii) (Q46342 whole entry): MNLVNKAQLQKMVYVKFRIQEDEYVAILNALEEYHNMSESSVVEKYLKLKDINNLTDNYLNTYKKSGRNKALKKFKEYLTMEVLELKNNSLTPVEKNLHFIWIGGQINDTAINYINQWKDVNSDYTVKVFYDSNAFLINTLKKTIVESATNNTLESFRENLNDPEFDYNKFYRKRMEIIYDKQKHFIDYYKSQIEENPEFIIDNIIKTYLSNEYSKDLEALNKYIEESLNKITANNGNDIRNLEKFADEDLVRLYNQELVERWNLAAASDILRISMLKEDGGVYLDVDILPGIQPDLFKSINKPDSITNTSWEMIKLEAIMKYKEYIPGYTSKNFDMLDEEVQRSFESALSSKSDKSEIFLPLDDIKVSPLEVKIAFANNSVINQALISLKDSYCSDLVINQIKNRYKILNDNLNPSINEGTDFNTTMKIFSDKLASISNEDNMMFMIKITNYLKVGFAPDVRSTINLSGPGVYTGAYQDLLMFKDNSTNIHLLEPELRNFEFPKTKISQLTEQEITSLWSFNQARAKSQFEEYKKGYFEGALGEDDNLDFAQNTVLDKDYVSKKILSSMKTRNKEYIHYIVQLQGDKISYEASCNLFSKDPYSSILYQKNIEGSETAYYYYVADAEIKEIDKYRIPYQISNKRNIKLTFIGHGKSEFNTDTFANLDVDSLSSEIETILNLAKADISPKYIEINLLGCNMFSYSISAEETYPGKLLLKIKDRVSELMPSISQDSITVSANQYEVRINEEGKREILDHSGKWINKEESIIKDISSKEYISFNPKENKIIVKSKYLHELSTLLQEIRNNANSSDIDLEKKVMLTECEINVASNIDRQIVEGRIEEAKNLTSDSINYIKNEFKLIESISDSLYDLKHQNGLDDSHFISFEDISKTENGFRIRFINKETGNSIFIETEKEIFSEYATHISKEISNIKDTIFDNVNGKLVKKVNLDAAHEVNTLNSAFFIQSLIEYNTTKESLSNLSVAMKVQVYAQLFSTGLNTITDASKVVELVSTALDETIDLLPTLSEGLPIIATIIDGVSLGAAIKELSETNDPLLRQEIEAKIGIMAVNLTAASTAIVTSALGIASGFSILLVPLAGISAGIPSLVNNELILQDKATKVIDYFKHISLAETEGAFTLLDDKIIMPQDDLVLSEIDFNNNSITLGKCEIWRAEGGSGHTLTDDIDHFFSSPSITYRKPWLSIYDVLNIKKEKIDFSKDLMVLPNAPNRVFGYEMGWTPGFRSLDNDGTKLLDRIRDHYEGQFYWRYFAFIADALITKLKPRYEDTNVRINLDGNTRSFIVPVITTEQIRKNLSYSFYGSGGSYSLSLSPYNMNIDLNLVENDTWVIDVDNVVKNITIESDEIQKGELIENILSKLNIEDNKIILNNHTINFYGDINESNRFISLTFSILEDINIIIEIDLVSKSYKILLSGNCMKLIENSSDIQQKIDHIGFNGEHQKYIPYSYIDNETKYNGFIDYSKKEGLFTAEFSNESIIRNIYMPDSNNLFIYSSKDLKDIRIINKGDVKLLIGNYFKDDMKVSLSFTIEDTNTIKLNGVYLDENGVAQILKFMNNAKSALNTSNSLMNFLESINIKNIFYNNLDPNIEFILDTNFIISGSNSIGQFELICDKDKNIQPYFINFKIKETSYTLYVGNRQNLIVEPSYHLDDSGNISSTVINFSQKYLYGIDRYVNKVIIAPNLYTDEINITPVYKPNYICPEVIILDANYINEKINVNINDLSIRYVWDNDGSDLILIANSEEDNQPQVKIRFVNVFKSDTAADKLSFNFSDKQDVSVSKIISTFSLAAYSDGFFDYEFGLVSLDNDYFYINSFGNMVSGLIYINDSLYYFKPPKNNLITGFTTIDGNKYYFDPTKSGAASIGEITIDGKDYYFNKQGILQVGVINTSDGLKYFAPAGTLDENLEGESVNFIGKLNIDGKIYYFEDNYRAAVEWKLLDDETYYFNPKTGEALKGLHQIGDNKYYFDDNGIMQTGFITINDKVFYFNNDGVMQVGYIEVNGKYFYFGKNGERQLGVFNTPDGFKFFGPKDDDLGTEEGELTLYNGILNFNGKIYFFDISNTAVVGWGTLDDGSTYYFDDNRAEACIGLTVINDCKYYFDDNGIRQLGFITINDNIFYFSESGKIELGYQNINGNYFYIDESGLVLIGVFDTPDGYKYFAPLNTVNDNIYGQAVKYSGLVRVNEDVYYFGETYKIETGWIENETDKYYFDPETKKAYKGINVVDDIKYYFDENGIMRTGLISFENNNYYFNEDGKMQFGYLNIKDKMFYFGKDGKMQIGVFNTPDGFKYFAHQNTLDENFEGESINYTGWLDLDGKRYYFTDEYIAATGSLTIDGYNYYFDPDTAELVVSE

Kd: 0.0183 nM
koff: 0.000125 s⁻¹
kon: 6.86e+06 M⁻¹ s⁻¹
B1: B10 (designed binder)
chain: NEEIIKEIKQLLKEGKKASEIIELLKKNGYEEIAKDAELAALKSKDMRKAAAETAIKKLE

From paper PMC12501149
